From US20190248902A1 (published 2019)
Where a chain is given by its changes, count along the chain named. Blank lines part the entries; values can stand above or below the binder they belong to.

Columns and labels:
Mouse ASGR-1 = biological target: T1, Mouse ASGR-1 (mouse, UniProt P34927 1-284); assay: FACS on transfected HEK 293 cells or membrane preps on beads; binding = signal at least 2x irrelevant IgG
T1 construct: Expressed on HEK 293 cells or as membrane prep on beads; cDNA GenBank BC022106.1; also called muASGR-1; mASGR-1
T1 sequence: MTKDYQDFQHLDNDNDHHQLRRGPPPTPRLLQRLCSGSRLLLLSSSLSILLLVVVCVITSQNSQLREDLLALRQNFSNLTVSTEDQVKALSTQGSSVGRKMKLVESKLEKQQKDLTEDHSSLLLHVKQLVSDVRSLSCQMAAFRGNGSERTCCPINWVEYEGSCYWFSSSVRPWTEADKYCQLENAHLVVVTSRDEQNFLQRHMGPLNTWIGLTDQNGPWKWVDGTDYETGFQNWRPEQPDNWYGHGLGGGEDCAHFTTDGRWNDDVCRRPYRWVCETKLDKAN
Method in brief: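 Antibodies at normalized concentrations bound 1 h at 4° C to HEK 293 cells expressing each antigen, then Alexa Fluor 647 anti-Fc plus 7-AAD 15 min at 4° C, flow cytometry; empty-vector cells as negative. Alternatively, species ASGR-1 membrane preps on streptavidin beads, antibody 1 h RT, Alexa Fluor 488 anti-Fc; FACS buffer with 1 mM CaCl2 throughout.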

Soluble ASGR-1 = biological target: T2, Soluble ASGR-1 (human, UniProt P07306 62-291, biotinylated); assay: limited antigen binding assay; biotinylated soluble ASGR-1 coated at 2.5 ng/mL on LumAvidin beads, FACS
T2 construct: Soluble recombinant protein; also called recombinant, soluble ASGR-1 biotinylated protein
T2 sequence: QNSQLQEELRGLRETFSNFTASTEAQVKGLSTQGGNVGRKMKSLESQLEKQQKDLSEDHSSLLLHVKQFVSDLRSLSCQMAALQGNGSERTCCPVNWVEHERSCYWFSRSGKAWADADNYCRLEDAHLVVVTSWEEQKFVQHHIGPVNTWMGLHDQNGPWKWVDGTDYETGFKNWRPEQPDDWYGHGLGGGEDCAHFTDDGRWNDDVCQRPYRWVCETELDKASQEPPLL

binding result (Mouse ASGR-1): no binding
FACS Geomean (Soluble ASGR-1): 22600 FACS Geomean
B1: 56E5 (antibody, V domains shown)
VH: QVQLVQSGAEVKKPGASVKVSCQASGYTFTGYHMHWVRQAPGQGLEWMGWINPNNNATNYAQKFQGRVTMTRDTSISTAYMELRRLRSDDTAVYHCARDGTSSFDYWGQGTLVTVSS
VL: DIQMTQSPSSVSASVGDRVTITCRASQGIRKWLAWYQQKPGKAPKLLIYAASSLQSGVPSRFSGSGSGTDFTLTISSLQPEDFATYYCQQANSFPFTFGPGTKVDIK
notes: Tested as hybridoma supernatant at normalized concentration

binding result (Mouse ASGR-1): no binding
FACS Geomean (Soluble ASGR-1): 12200 FACS Geomean
B2: 29H8 (antibody, V domains shown)
VH: QVQLVQSGAEVQKPGASVKVSCKASGYTFTNYDINWVRQATGQGLEWMGWMNPNSGNTGYAQRFQGRVTMTRNTSISAAYMELSSLRSEDTAVYYCASSSGWYYFDYWGQGTLVTVSS
VL: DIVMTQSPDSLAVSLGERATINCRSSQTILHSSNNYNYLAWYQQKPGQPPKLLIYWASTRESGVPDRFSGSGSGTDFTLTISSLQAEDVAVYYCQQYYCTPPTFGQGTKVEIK
notes: as for B1

binding result (Mouse ASGR-1): no binding
FACS Geomean (Soluble ASGR-1): 16600 FACS Geomean
B3: 4A2 (antibody, V domains shown)
VH: B2 VH with A9T, Q12K, N52H, R63K, M70L, A78T
VL: DIVMTQSPDSLAVSLGERATINCKSSQSILHSSNNNNYLAWFQQKPGQPPKLLLYWASTRESGVPDRFSGSGSGTDFTLTISSLQPEDVAVYYCQQYYNTPVTFGPGTKVGIK
notes: as for B1

binding result (Mouse ASGR-1): no binding
FACS Geomean (Soluble ASGR-1): 38900 FACS Geomean
B4: 194A4 (antibody, V domains shown)
VH: QVQLVQSGTEVKKPGASLKVSCKASGYTFTVYYLNWVRQAPGQGLEWMGWINPNSGGTNYAQKFQGRVTMTRDTSISTAYMELSRLRSDDTAVYYCARGYDILTGWGQGTLVTVSS
VL: EIVLTQSPGTLSLSPGERATLSCRASRGVSNIYLAWYQQKPGQAPRLLIYGASNRATGIPDRFSGSGSGTDFTLTISRLEPEDFAVYYCQHNDYSMFTFGPGTKVDIK
notes: as for B1
